{"source": "the supplement of paper PMC10724198", "note": "± gives the standard deviation of the averaged measurements.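 Note: PSI is a weighted mean of sequencing reads over stability bins, variants kept only with over 10 reads, mCherry proximal and sfGFP distal, peptide attached via GGGS linker.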"}
{"system": "Saccharomyces cerevisiae", "assay": "protein stability index of tFT-peptide fusion (C-terminal peptide) (PSI (0-1 scale)); higher = more stable (slower turnover)", "conditions": "genetic background: wild type; temperature: 30 C"}
{"sequence": "RSARGRRGWALG", "protein stability index": "0.712 ± 0.022"}
{"sequence": "RSCGCNGPGRSP", "protein stability index": "0.749 ± 0.08"}
{"sequence": "RSCPILLLSFPL", "protein stability index": "0.62297 ± 0.00052"}
{"sequence": "RSFPLRLLSLFV", "protein stability index": "0.585 ± 0.019"}
{"sequence": "RSGGYPGLLLFN", "protein stability index": "0.6227 ± 0.0053"}
{"sequence": "RSGRGRRGVGWV", "protein stability index": "0.655 ± 0.038"}
{"sequence": "RSGSRNYPGFPR", "protein stability index": "0.764 ± 0.027"}
{"sequence": "RSIFLSRFVIGC", "protein stability index": "0.682 ± 0.018"}
{"sequence": "RSINTETPSKNE", "protein stability index": "0.613 ± 0.056"}
{"sequence": "RSIYEFVPIRYV", "protein stability index": "0.594 ± 0.028"}
{"sequence": "RSPGSVSVGGVV", "protein stability index": "0.615 ± 0.021"}
{"sequence": "RSPHGLRSRIQR", "protein stability index": "0.72 ± 0.037"}
{"sequence": "RSPLPFPGASVP", "protein stability index": "0.747 ± 0.039"}
{"sequence": "RSPRLRSRVRVP", "protein stability index": "0.639 ± 0.083"}
{"sequence": "RSPSTRHVGLSW", "protein stability index": "0.6696 ± 0.00085"}
{"sequence": "RSRHRRQDGKKT", "protein stability index": "0.64 ± 0.029"}
{"sequence": "RSRPPPPLLPSV", "protein stability index": "0.8206 ± 0.0072"}
{"sequence": "RSSECNQLYTHK", "protein stability index": "0.682 ± 0.065"}
{"sequence": "RSTPALRPVDLE", "protein stability index": "0.707 ± 0.049"}
{"sequence": "RSTSPCPPTVSP", "protein stability index": "0.641 ± 0.091"}
{"sequence": "RSTTDNADRILY", "protein stability index": "0.7299 ± 0.0022"}
{"sequence": "RSVVLPSFLSPH", "protein stability index": "0.699 ± 0.017"}
{"sequence": "RTDRIVGGNERV", "protein stability index": "0.661 ± 0.0072"}
{"sequence": "RTFVSLLTSSSH", "protein stability index": "0.83 ± 0.17"}
{"sequence": "RTGLLLLVQDFR", "protein stability index": "0.703 ± 0.018"}
{"sequence": "RTGSCSCQRKPE", "protein stability index": "0.663 ± 0.017"}
{"sequence": "RTHLVRRHGEAR", "protein stability index": "0.697 ± 0.02"}
{"sequence": "RTKETTTRQKKK", "protein stability index": "0.708 ± 0.052"}
{"sequence": "RTKNMRRIKEKG", "protein stability index": "0.688 ± 0.046"}
{"sequence": "RTKVSENLNEKK", "protein stability index": "0.681 ± 0.032"}
{"sequence": "RTLYAGVVGGNG", "protein stability index": "0.734 ± 0.086"}
{"sequence": "RTPLPPPRPSTY", "protein stability index": "0.719 ± 0.049"}
{"sequence": "RTPSHPLPHPHS", "protein stability index": "0.677 ± 0.12"}
{"sequence": "RTSGRIASLPGP", "protein stability index": "0.617 ± 0.031"}
{"sequence": "RTSPRMAPLRTH", "protein stability index": "0.713 ± 0.067"}
{"sequence": "RTTAPPIPLPSP", "protein stability index": "0.729 ± 0.042"}
{"sequence": "RTTKRKIKIIGI", "protein stability index": "0.709 ± 0.013"}
{"sequence": "RVCSGYSRLRFA", "protein stability index": "0.561 ± 0.085"}
{"sequence": "RVDTRKQNKNSM", "protein stability index": "0.693 ± 0.019"}
{"sequence": "RVEITGVAVTRC", "protein stability index": "0.642 ± 0.0082"}
{"sequence": "RVFVRFGSCAGG", "protein stability index": "0.679 ± 0.059"}
{"sequence": "RVGGRVSGGGGL", "protein stability index": "0.654 ± 0.027"}
{"sequence": "RVPNSYELRCFR", "protein stability index": "0.544 ± 0.038"}
{"sequence": "RVPPPTSPPSPP", "protein stability index": "0.694 ± 0.012"}
{"sequence": "RVSEPRRPPLGR", "protein stability index": "0.65 ± 0.024"}
{"sequence": "RVSGILQHFTSA", "protein stability index": "0.7309 ± 0.0058"}
{"sequence": "RVSWGRTGTLRN", "protein stability index": "0.681 ± 0.018"}
{"sequence": "RVTMLPSSQRGI", "protein stability index": "0.651 ± 0.033"}
{"sequence": "RVTPGLSIFFWP", "protein stability index": "0.729 ± 0.0094"}
{"sequence": "RVVCFPAPLMPR", "protein stability index": "0.705 ± 0.05"}
{"sequence": "RVVDEPRDFQVR", "protein stability index": "0.6888 ± 0.0043"}
{"sequence": "RVVPSVSVWLPP", "protein stability index": "0.663 ± 0.052"}
{"sequence": "RWKLRLFLLVPT", "protein stability index": "0.602 ± 0.044"}
{"sequence": "RWLGWRAGGAAG", "protein stability index": "0.662 ± 0.071"}
{"sequence": "RWPSVGFTAHNV", "protein stability index": 0.571}
{"sequence": "RWSPLLPPQVSL", "protein stability index": "0.683 ± 0.019"}
{"sequence": "RYASSRTLFAAV", "protein stability index": "0.672 ± 0.069"}
{"sequence": "RYGLSLLQASRR", "protein stability index": "0.679 ± 0.081"}
{"sequence": "RYLQAGDYTKVY", "protein stability index": "0.695 ± 0.1"}
{"sequence": "RYPSAPPKISAS", "protein stability index": "0.613 ± 0.0083"}
{"sequence": "RYQMVTGPPQRH", "protein stability index": "0.6921 ± 0.004"}
{"sequence": "RYVVTVQGSGGE", "protein stability index": "0.688 ± 0.045"}
{"sequence": "SAAVDSPIFPSS", "protein stability index": "0.6916 ± 0.00075"}
{"sequence": "SAELGHTNLCRS", "protein stability index": "0.6781 ± 0.0041"}
{"sequence": "SAFSSSLTALPP", "protein stability index": "0.653 ± 0.022"}
{"sequence": "SAGGARSLQMFC", "protein stability index": "0.66 ± 0.027"}
{"sequence": "SAGHHACRRYAG", "protein stability index": "0.683 ± 0.037"}
{"sequence": "SAGVTGREVFVG", "protein stability index": "0.631 ± 0.015"}
{"sequence": "SALNKPLTTESG", "protein stability index": "0.6586 ± 0.0021"}
{"sequence": "SAPQPPFPFPPS", "protein stability index": "0.696 ± 0.0093"}
{"sequence": "SAPRFPARFYPL", "protein stability index": "0.66705 ± 0.0003"}
{"sequence": "SAPRRPPLIFPG", "protein stability index": "0.672 ± 0.11"}
{"sequence": "SARPDLAERHRP", "protein stability index": "0.673 ± 0.013"}
